From the DeepSol protein solubility set come the findings set out here.

The nature of the data set: soluble on expression in E. coli; label from the status in PepcDB or PDB records.
As for “MSRGQIIHSGHFMCSNPHDDLVQDEDEEDVEVDVVEDDDKSMEASSSVHHKNKALDEKPVTFYKFGVGKTQSIAIDVSLNKLNKCIKVAYNKMTTPKWKDFKGLRLHWKQRVRLNNVIWRAYYIEFRKKQPEKPKKPFCYFAVPDDDTTHQKIEGSIVEGMYWKRKMEGVCAQYKRWRIRSKHNLVTDKGGMVATCSSTSVSSMTGELKRKRKHTVPKETIESKLRSYEPPVKLQRSQTPKHTISDEFAWDFDDLDNVFTDDFLNSLSEPYMFPDPRDVYSGNNADIMQPGLLPLQPTIEDIMMSLGDDMPDSPPFHNDRDTMRTPTNDQPSISAQQIPQMRRSASSSASLHQMQVAQAQAQSISQISQPSQQLQHQIQIQQPVAARPHEFMASSIMMDYRLMPTRQSSAITSQMLMLSQSASTLSSQPQYATSTHYSTNNSFLPIRNTMTNQHHLGHTSQHSPWNKQQQSNFLVSLPHQSHVERILNNQPPLVPPPSRSNLLPTQNDPYLPQFLQSTQPTPQPQSHDPMMAPSRSWWLDSPLTASVQSPLSVATPLPLANQTGPQTPLGQLIGSADNGFLFGGNNTPGGFKMSGTTSGVPTLSQRLEQPPISRTSTIFGNVENKPERIFTSLTSQNTPTPSPLDISSLSRLRTSSLNESWKMSHIVEGSPTYQAFAASVTTKPSILESPSTSGDISGPASVPVQASQHPPKIITPPSASSKRKEQEAAMAPLVNRQQSCDVNLLNGKMAVKVEEKSGRHYLPTTPTELKEVTKEEPLLMSAPSSVKSMRRQAPDSTLHPEERKRILHLHAEQNRRSALKDGFDQLMDIIPDLYSGGVKPTNAVVLAKSADHIRRLQAEKWDKTQKIDEAKAKIEKLNQKITSLQSNLPQSSAPSSSSQVDSKTSLETFFDRYVKEGAKKNWRFWVVSYLAEKLKFF”, the “soluble on expression in E. coli” value is given as “not soluble”. To “MEMGMKRIANECFFAWVESEIKSGRSVKFRVKGNSMMPLLRNGKDEVVVGPYDKEELKLFDVILFRQTDRYVLHRIIQKRDSRYLMQGDGVCRFYEECEDTDIIGVVRKVCRPSGKKIETDSMCWRLESRLWLGLGGCRGMVLRVLNRLGCCLLF” belongs “not soluble”; to “DLQNMDATNWLGNSVSEGFIHQFQRRGFKVVDFKTTGSIQVTQQGDFALSRDWQDLAQEQQIQYVLTGTMLRQEGGVLVNARVVGMQSRVVVATAQGFLPADRIGRDLDTLNSIRTQDGVLIRSDPTIRQPYTVILRP”, “not soluble”; to “MGSDKIHHHHHHAAAPAFSALGDTASSQARHIATVFPGRMTGTPPEMLSADYLRQQFALMGYQSDVRSFNTRYIYTDSNQRKNWHNATGSTVIAAHEGKVRQQIIIMAHLDTYAPQSDKDVENNLGGLTLQGIDDNAMGLGVLLELAEHLKNVPTRYGIRFIATSGEEEGRLGAQNLLQRMSEAEKKNTLLVINLDNLVVGDKLYFNSGRSTPASVRKLTRDRALAIARSKGIAAYTNPGLNPAYPKGTSCCNDASVFDNAGIPVLSVEATNWSLGKKDGYQQRSKSASFPQGTSWHDVQLDNQQYIDHALPGRIEHRGREVVKVMLPLVKELAKVEKKS”, “not soluble”.

In the case of “MAVPVQFRKPPMGGIGKKVAYYPGCSLEGAARAYDVSTRIVAKELGLELDYLEDYNCCGAMETKNVSFWGTMLLNARNMSLARRQGHNVIVAPCNGCSFSLQRVEYFLETDKNTLDRINQLLQEAGEKPLDNIPHTYHILEWFYHEAGPEKVKEKTKKPLRGLKVASYYGCLYTRPHFYARTYSHLAPEDEEQARPRKRETADDDEHPYYMEALLEAAGATSVEIEPMHTQCCGGPHSLSDEEVSEKFVMMILQTAKRNGADIIATECPLCHASLEMYRHRLMLKGVPDVDVPAAYFTQLLGLAFGYSVNDVKLKDNLSDPIPVLKRLGLA”, the “soluble on expression in E. coli” value is recorded as “not soluble”. With “SMNNKEVELYGGAITTVVPPGFIDASTLREVPDTQEVYVNSRRDEEEFEDGLATNESIIVDLLETVDKSDLKEAWQFHVEDLTELNGTTKWEALQEDTVQQGTKFTGLVMEVANKWGKPDLAQTVVIGVALIRLTQFDTDVVISINVPLTKEEASQASNKELPARCHAVYQLLQEMVRKFHVVDTSLFA” the entry was “soluble”; with “SPTPVELHKVTLYKDSGMEDFGFSVADGLLEKGVYVKNIRPAGPGDLGGLKPYDRLLQVNHVRTRDFDCCLVVPLIAESGNKLDLVISRNP”, “soluble”. As to “MREDNQSLSHTTWNCKYHIVFAPKYRRQIIYGRYKASIGRIIRDLCERKGVIIHEANACSDHIHMLISIPPKLSVSSFMGYLKGKSSLMIFDKHANLKYKYGNRKFWCRGYYVDTVGRNQKVIAEYIQNQLQEDRVADQLTLFESVDPFTGEINKRK”, the “soluble on expression in E. coli” value was “not soluble”. To “MGSDKIHHHHHHMKTLAQNIQEKLKASGLTQKELAERANISQVMVHKLISGKAKESSKLVAIAGVLGCTAEELMYGLEKHVPTSNAEWAGPMETWDSNTPLNDDEVEIPFYMEVELAAGHGIAEASEYHGPKLRFAKSTLRKSSVDPTNAACVRVSGNSMEPVLPSGSTVGVDTSQTDVIDGKMYAINHDGMLRVKTLYKLPGGGLRLRSYNIDEWPDERYEGEAIKQIKIIGKVFWYSVLM” belongs “not soluble”.

Take “MGHHHHHHGGHMSLQDFKKLPTVLTAEELIDKIFRRAARVEGRNPKEKALNKLATISNVSRDYFGKIIGAHPSYENLPDFYREMVDVVVGIRQLKKSLVALKWADGMIQKVVSRAVREVKGGKNPSAVVKSAYGRVASIIEQIDDELRFLNDAKNRMREIPILQDLPTIVVAGYPNVGKSSLVARISTVKPEVASYPFTTKKINLGFAEFAGKRVQIIDTPGLLDRPLSKRNRIERRAVLALKHLADIILFVIDPTETCGYSLEKQLSLLEEIKGYFAKPTVEVYSKADMHDRRDRQAYSAVTGEGIDELIKEIEKMVKIHSQTSTVIAPSGQTSTQEQHSEGGS”: the “soluble on expression in E. coli” value was “soluble”. To “MVRVGMRAAPRVSLEALKAALGGLKLSEAKVYLITDWQDKRDQARYALLLHTGKKDLLVPDAFGPAFPGGEEALSELVGLLLAQGARRFYEAVVSPGEMTALLDLPPEELLKRVMAIANPTDPGIYLKRAA” belongs “soluble”. With “MQRRGQLSRRLVNSADRDPSDENSLSRAPAPACTSRGTHVVETTSLKRHSKVLRSQDASGTAESVNSQTPDDEVDHTLWTLVREVSDAEAAFWALRNDSRLLGFVLRSQLLALVHDDSSVTDFLEAAQQPTDVGDVQAEFILCWVPVPGGPAILWRADYQRLIEEQVARRLSELEDPARKAALWGTTREQVERDTHIRAADGSCWLRTLPCPPSVIRALTQGQKALVQQVKRMGRYGRLPLHRAELLRLSRTCFSARFHILDAVGCGTLALDAQNTLSKEPYLCLPEVRTTNIVDSGEIGF” the entry was “not soluble”; with “MGSDKIHHHHHHMKSLGRHLVAEFYECDREVLDNVQLIEQEMKQAAYESGATIVTSTFHRFLPYGVSGVVVISESHLTIHTWPEYGYAAIDLFTCGEDVDPWKAFEHLKKALKAKRVHVVEHERGRYDEIGIPEDSPHKAAV”, “soluble”; with “MTYCLGIVTQAGLIMAADSRTNAGIDYISTYQKLFDFSLPGDRTIVICCSGNLSITQAVLSQLRRDLAGHFDINLHSLPTMYDLARYLGQKVRQLQESDRDWLKQDGIDFYCNFLLGGQIRGGPIELYLVYGQGNCIHATPETPYLQIGETKYGKPILDRTISFDTSLDMAAKCALMSLDSTMRSNLSVGPPLNLARYERDSLVAPMLVQFPAGHEYLVEMRRRWEISLKDAFMRLPDIDWSRQLMRSLSPVSESVP”, “not soluble”.

For the sequence “GPGSMAALAALEKEVADLKRVRVFNETVRTGVERVLASLPSPENEKDTSTKVRILLLRSQATLLLPRVSREAEKDLNAALKLQPGSATTWVELSECLLRRNAFKEACDALDNALRVNPAHTEALCKYSQIQRNRCGGEGVTADQRKAYLEDAVAKARAAVGSNVDDADAWNTLALSLLSKVTLEGMTFDGVRKALAAMQQAERKCPEDPDVPYNKAVLESLLGHFGAAAMDYWRAHALDKDRLKGTRHLSEENAKVLLRAQSRMRTSSGIGKRDFQRICTRIEQAHKKYTQSTSAKVVGVLDIVTEPTMQPVTLLVSDGKGDFVLLLLHEVRPTCFKIGDVIAYPVTTPVETITHNIVACPGVEEEPLKLTLSHAYPNPKSILVNGQPLPSSAHVPLQMSSRLFA”, the “soluble on expression in E. coli” value is listed as “soluble”. With “MAHHHHHHMRVYECDFYSHPAVCKYRLPKPYRHPTLDKRLREQRSVREARALVRCQKQGIAVPAVYAIDRESCAIVMERIIGMSVRDVLNEAQRPLEGAVSPVAARLLEGMGEVVGLLHNAHIIHGDLTTSNFMYRTATVAEGKADSAACGAAPRDRLVVLDFGLVMDKNSAEERAVDLYVLERAIKSSHPSLEGVASAFILNGYRRTADPHQVEATITRLGAVRARGRKRSMVG” the entry was “not soluble”; with “MSLIQNVYINGLSGVSAQPTFDESYVDGNVQTETIPYRKVLDPDYKQYLNPTASRRFSRLIKMSLVAAQKSIAMADGVMPEAIITGTGLGCLEDTEKFLKALIENNESMLSPTAFIQSTHNTISGQIAMMITCYYPNYTYSNRYFTFESSLLDAVLMLLDKSCKHVLVNAADEIIPAVHTIVKRMHLWDRAEAIAHKNALAVTAGEGVVSMMLSSEKKESSVAAVKALELIYILPKDTSIEAHFKKFLAEASLTAADIDVLVLGMNGDAASDVYYEPVRNLFSTSTHVVYKHHFGESFTASSFAYWLGAQLIRHKKIDASVILSDKGHRAPKRVLLYNQSHNKYHSFCLLTDVDEGHHHHHH”, “not soluble”. To “MLMATMTPWYLYLIRTADNALYTGITTDVARRYRQHQTGKGAKALRGKGELTLAFAAQVGDRSLALRIEYRIKQLTKRQKERLVTEREAFEALLSSLQTPVLKND” belongs “not soluble”; to “MQVIVGHSSTRLPENNENGHTHKWTLFVKPGNRDYDEFPDNKLIQKVKFEIHESFAQPVRFVTKPPFKITETGFASFTTLVTIFLNLPNEKPRTIPYELTLFTGDQDVQLETQKLVVQKDVPPAYLELIKKYARTKKRKASLISNDEKSPSRKMHKITPVKEEESSQKMSKSKEKGVPIPKIDIEIEKASPKKEKKEKVKSPEELTRRLNECTDSHVIYKASEYLLTLPDTKLSQTTLKLSFDLSRCDSTTLMDIGRILKGKKAKK”, “not soluble”.

On to “MSLGKSNVLVTMPVAPTMEVKSFPILDQCVGQVGLNFELSFTGAPPYYYNTKIYKLENGERKLYDAKRYTSEGTRNRFSYSPPKEGNYEIVFDTVSNKLFTEPIKLEPVKEYTFKTSMRVKPSASLKLHHDLKLCLGDHSSVPVALKGQGPFTLTYDIIETFSSKRKTFEIKEIKTNEYVIKTPVFTTGGDYILSLVSIKDSTGCVVGLSQPDAKIQVRRDIPSAAFNFFEPIKEAKIKHGSVTEIPLKLSGEGPFTVKFKHMDYDGNIVKEFENKFQNSYKPALKVSKEGLYQLVDIRDSSCQGNVIYRNSLYKVSFLEKPKFAIQDNHHITKVTENLFSKEEVCQGMEGTVDLALFGSPPFILEYDLMAPNGHISTKKIQVATKYASLKLPNQIPGEYITTIKAIFDGNYGESDIHFREHQSELIIKQTVHPIPDVAFADGGKTLRACAANVDQISFLEPINLKFLQGESPFSITFSVYHESTSRTDQYTIDNIDSENFSFEKLYEGMKLGNHAITIDSVVDANGCVNSLISGPRNQILVSITDAPKIHILDPSTEYCVGDYVAYQLNGVAPFMIKYEFNGIPLKSKERSSQFVRLASEPGIISITSLQDSSSQCIVDFTNPKLKSEFDDEGHHHHHH”, for which the “soluble on expression in E. coli” value is listed as “soluble”.
